Experiments:
[1] = molecular target: 16C3 antigen (CEACAM5 and/or CEACAM6) on tumor cells; assay: rosetting assay, h16C3-coupled beads on CFPAC-1 cells in the presence of 4B6 at 5 µg/ml
[2] = molecular target: 16C3 antigen (CEACAM5 and/or CEACAM6) on tumor cells; assay: flow cytometry, CFPAC-1 pancreatic cells
[3] = molecular target: 16C3 antigen (CEACAM5 and/or CEACAM6) on tumor cells; assay: flow cytometry, LS174T colorectal cells
[4] = molecular target: 16C3 antigen (CEACAM5 and/or CEACAM6) on tumor cells; assay: rosetting assay, antibody-coupled beads on CFPAC-1 cells
[5] = molecular target: 16C3 antigen (CEACAM5 and/or CEACAM6) on tumor cells; assay: flow cytometry, HT-29 colorectal cells
[6] = molecular target: 16C3 antigen (CEACAM5 and/or CEACAM6) on tumor cells; assay: flow cytometry, LS174T colorectal cells; remark: listed apart in the source
[7] = molecular target: 16C3 antigen (CEACAM5 and/or CEACAM6) on tumor cells; assay: flow cytometry, CFPAC-1 pancreatic cells; remark: listed apart in the source
[8] = molecular target: 16C3 antigen (CEACAM5 and/or CEACAM6) on tumor cells; assay: flow cytometry, HT-29 colorectal cells; remark: listed apart in the source

- Rosetted cells (>8 beads) [1]: 50%
- mean fluorescence intensity [2]: 91 mfi
- % Cell Staining [3]: 69.4%
- mean fluorescence intensity [3]: 103 mfi
- Rosetted cells (>8 beads) [4]: 53%
- mean fluorescence intensity [5]: 44 mfi
- mean fluorescence intensity [6]: 103 mfi
- % Cell Staining [7]: 91.8%
- mean fluorescence intensity [7]: 91 mfi
- % Cell Staining [8]: 26.3%
- mean fluorescence intensity [8]: 44 mfi
B1: h16C3 (antibody, from a related filing, V domains shown)
VH: QVQLVQSGAEVKKPGASVKVSCKASGYTFTDYAMHWVRQAPGQRLEWMGLISTYSGDTKYNQNFQGRVTMTVDKSASTAYMELSSLRSEDTAVYYCARGDYSGSRYWFAYWGQGTLVTVSS
VL: DIQMTQSPSSLSASVGDRVTITCQASENIYGALNWYQRKPGKSPKLLIYGASNLATGMPSRFSGSGSGTDYTFTISSLQPEDIATYYCQQVLSSPYTFGGGTKLEIKR
